In patent publication US20220289830A1 (STAIDSON BEIJING BIOPHARMACEUTICALS, published 2022):

Tests used:
[1] = molecular target: T1, native PcrV on live Pseudomonas aeruginosa (strains O6-57/66, O11-PA103, O1-52/66, O16-177/81) (Pseudomonas aeruginosa); assay: cell-based or functional assay
[2] = molecular target: T2, recombinant Pseudomonas aeruginosa PcrV, full-length (PAO), His-tagged (Pseudomonas aeruginosa); assay: BLI
[3] = molecular target: T2, recombinant Pseudomonas aeruginosa …; assay: SPR (BIACORE)
[4] = molecular target: T1, native PcrV on live Pseudomonas …; assay: cell-based or functional assay; remark: listed apart in the source
[5] = molecular target: T2, recombinant Pseudomonas aeruginosa …; assay: ELISA, PcrV coated on the plate, goat anti-human Fc-AP detection
[6] = molecular target: T1, native PcrV on live Pseudomonas …; assay: cell-based or functional assay; remark: listed apart in the source
[7] = molecular target: T1, native PcrV on live Pseudomonas …; assay: cell-based or functional assay; remark: listed apart in the source

B1: 7C1 (antibody, V domains shown)
VH: EVQLLESGGGLVQPGGSLRLSCTASGFTFSDNHMSWVRQAPGKGLDWVSGISESGGSTNYADSVKGRFSTSRDNSKSTLYLDMNSLRAEDTAIYYCAKGRFSTSSSHFYRAVYGMDVWGQGTAVTVSS
VL: DIQLTQSPSSLSASVGDRVTITCRASQGISSYLAWYQQKPGKAPKLLIYAASTLQSGVPSRFSGSGSGTDFTLTISSLQPEDFATYYCQQLSSYPLSFGGGTKVEIK
notes: also called optimized anti-PcrV mAb clone 7C1
A549 cell lysis Average IC50 over the strains [1]: 1.18 µg/mL
A549 cell lysis IC50, strain O1-52/66 [1]: 2 µg/mL
A549 cell lysis IC50, strain O6-57/66 [1]: 0.496 µg/mL
A549 cell lysis IC50, strain O11-PA103 [1]: 1.12 µg/mL
A549 cell lysis IC50, strain O16-177/81 [1]: 1.09 µg/mL
Kd [2]: 0.101 nM
Kd [3]: 0.0457 nM
RBC lysis Average IC50 over the three strains [4]: 0.195 µg/mL
RBC lysis IC50, strain O1-52/66 [4]: 0.367 µg/mL
RBC lysis IC50, strain O6-57/66 [4]: 0.0767 µg/mL
RBC lysis IC50, strain O16-177/81 [4]: 0.141 µg/mL
EC50 [5]: 0.134 µg/mL
RBC lysis assay IC50 (P. aeruginosa strain 57/66(O6)) [6]: 0.1 µg/mL
A549 cytotoxicity assay IC50 (P. aeruginosa strain PA103(O11)) [7]: 1.36 µg/mL

B2: 2B1 (antibody, V domains shown)
VH: EVQLLESGGGLVQPGGSLRLSCTASGFTFSSYPMSWVRQAPGKGLDWVSGISESGGSTNYADSVKGRFSTSRDNSKSTLYLDMNSLRAEDTAIYYCAKGRFSGESHHFFRAVYGMDVWGQGTAVTVSS
VL: DIQLTQSPSSLSASVGDRVTITCRASQGISSYLAWYQQKPGKAPKLLIYAASTLQSGVPSRFSGSGSGTDFTLTISSLQPEDFATYYCQQLSSYPLSFGGGTKVEIK
notes: also called optimized anti-PcrV mAb clone 2B1
Kd [2]: 0.194 nM
EC50 [5]: 0.162 µg/mL
RBC lysis assay IC50 (P. aeruginosa strain 57/66(O6)) [6]: 0.12 µg/mL
A549 cytotoxicity assay IC50 (P. aeruginosa strain PA103(O11)) [7]: 3.01 µg/mL

B3: 3G3 (antibody, V domains shown)
VH: EVQLLESGGGLVQPGGSLRLSCTASGFTFSDYPMSWVRQAPGKGLDWVSGISESGGSTYDADSVKGRFSTSRDNSKSTLYLDMNSLRAEDTAIYYCAKGRFSASAGHFFRAVYGMDVWGQGTAVTVSS
VL: DIQLTQSPSSLSASVGDRVTITCRASQGIRSYLAWYQQKPGKAPKLLIYAASTLQSGVPSRFSGSGSGTDFTLTISSLQPEDFATYYCQQLSSYPLSFGGGTKVEIK
notes: also called optimized anti-PcrV mAb clone 3G3
Kd [2]: 0.381 nM
EC50 [5]: 0.0936 µg/mL
RBC lysis assay IC50 (P. aeruginosa strain 57/66(O6)) [6]: 0.18 µg/mL
A549 cytotoxicity assay IC50 (P. aeruginosa strain PA103(O11)) [7]: 2.75 µg/mL

B4: 7B2 (antibody, V domains shown)
VH: EVQLLESGGGLVQPGGSLRLSCTASGFTFSDYPMSWVRQAPGKGLDWVSGISESGGSTNYADSVKGRFSTSRDNSKSTLYLDMNSLRAEDTAIYYCAKGRFSTDSSHFFRAVYGMDVWGQGTAVTVSS
VL: DIQLTQSPSSLSASVGDRVTITCRASQGISSYLAWYQQKPGKAPKLLIYAASTLQSGVPSRFSGSGSGTDFTLTISSLQPEDFATYYCQQLSSYPLSFGGGTKVEIK
notes: also called optimized anti-PcrV mAb clone 7B2
Kd [2]: 0.0875 nM
EC50 [5]: 0.0967 µg/mL
RBC lysis assay IC50 (P. aeruginosa strain 57/66(O6)) [6]: 0.05 µg/mL
A549 cytotoxicity assay IC50 (P. aeruginosa strain PA103(O11)) [7]: 2.32 µg/mL

B5: 3H10 (antibody, V domains shown)
VH: EVQLLESGGGLVQPGGSLRLSCTASGFTFSDYPMSWVRQAPGKGLDWVSGISESGGSTNDADSVKGRFSTSRDNSKSTLYLDMNSLRAEDTAIYYCAKGRFSDYSQHFFRAVYGMDVWGQGTAVTVSS
VL: DIQLTQSPSSLSASVGDRVTITCRASQGISSYLAWYQQKPGKAPKLLIYAASTLQSGVPSRFSGSGSGTDFTLTISSLQPEDFATYYCQQLNSYPLTFGGGTKVEIK
notes: also called optimized anti-PcrV mAb clone 3H10
Kd [2]: 0.779 nM
EC50 [5]: 0.149 µg/mL
RBC lysis assay IC50 (P. aeruginosa strain 57/66(O6)) [6]: 0.16 µg/mL
A549 cytotoxicity assay IC50 (P. aeruginosa strain PA103(O11)) [7]: 1.78 µg/mL

B6: 5B3 (antibody, V domains shown)
VH: EVQLLESGGGLVQPGGSLRLSCTASGFTFSDYPMSWVRQAPGKGLDWVSGISESGGSTNDADSVKGRFSTSRDNSKSTLYLDMNSLRAEDTAIYYCAKGRFSQDSYHFFRAVYGMDVWGQGTAVTVSS
VL: DIQLTQSPSSLSASVGDRVTITCRASQGISSYLAWYQQKPGKAPKLLIYAASTLQSGVPSRFSGSGSGTDFTLTISSLQPEDFATYYCQQLSSYPLSFGGGTKVEIK
notes: also called optimized anti-PcrV mAb clone 5B3
Kd [2]: 0.455 nM
EC50 [5]: 0.109 µg/mL
RBC lysis assay IC50 (P. aeruginosa strain 57/66(O6)) [6]: 0.12 µg/mL
A549 cytotoxicity assay IC50 (P. aeruginosa strain PA103(O11)) [7]: 2.39 µg/mL

B7: 3A9 (antibody, V domains shown)
VH: EVQLLESGGGLVQPGGSLRLSCTASGFTFSDYSMSWVRQAPGKGLDWVSGISESGGSTNYADSVKGRFSTSRDNSKSTLYLDMNSLRAEDTAIYYCAKGRFSDSTKHFFRAVYGMDVWGQGTAVTVSS
VL: DIQLTQSPSSLSASVGDRVTITCRASQGISSYLAWYQQKPGKAPKLLIYAASTLQSGVPSRFSGSGSGTDFTLTISSLQPEDFATYYCQQLSSYPLSFGGGTKVEIK
notes: also called optimized anti-PcrV mAb clone 3A9
Kd [2]: 0.533 nM
EC50 [5]: 0.116 µg/mL
RBC lysis assay IC50 (P. aeruginosa strain 57/66(O6)) [6]: 0.23 µg/mL
A549 cytotoxicity assay IC50 (P. aeruginosa strain PA103(O11)) [7]: 1.21 µg/mL
